# Experimental data taken from patent US20140234303A1.
# Molecular target: mGCSF (R&D Systems Cat#414-CS) (mouse (printed as 'm')) (UniProt P09920)
# Test: cell-based or functional assay
# Chain of UniProt P09920 (P09920 31-208 limits assumed): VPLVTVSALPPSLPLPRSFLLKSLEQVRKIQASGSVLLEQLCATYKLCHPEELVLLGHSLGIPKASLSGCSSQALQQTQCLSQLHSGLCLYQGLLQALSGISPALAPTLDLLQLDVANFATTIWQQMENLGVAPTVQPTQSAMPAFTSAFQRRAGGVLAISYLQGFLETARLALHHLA
row,Substance,"inhibition of mG-CSF proliferation of hG-CSFR BaF3 cells (MTS reduction), IC50 [nM]"
1,soluble hG-CSFR-Fc protein (from UniProt Q99062 25-627) (Fc fusion),0.022
2,"Neutralizing anti-G-CSF (MAB414), R&D Systems (antibody)",0.01
